Key:
[1] = human, in vivo
Experimental: Serum samples were analyzed for acetaminophen-protein adducts (as measured by acetaminophen-cysteine or APAP-CYS) using a high-performance liquid chromatography with electrochemical detection (HPLC-EC) method. All serum samples were dialyzed, treated with protease, and then precipitated with trichloracetic acid.
The severity of liver injury was stratified by the highest recorded value for AST concentration.
The subgroups were based on the severity of toxicity defined as the highest recorded value for AST concentration for each patient over the period of hospitalization.

[2] = under overdose conditions; cited from earlier work

Molecule	mean (±SD) half-life of adducts in serum [1] [days]	reported elimination half-life [2]
3-(cystein-S-yl) APAP (3-Cys-A)-protein adducts [APAP-protein adducts]	1.47 ± 0.30	–
CC(=O)Nc1ccc(O)cc1 [APAP, Acetaminophen]	–	about 18 hours

Source: patent publication US20120301897A1, “ACETAMINOPHEN-PROTEIN ADDUCT ASSAY DEVICE AND METHOD” (BOARD OF TRUSTEES OF THE UNIVERSITY OF ARKANSAS, priority 2008, published 2012)
